Measurements: US20190307836A1 (Bicycle, published 2019)
Starred links: 1 amine or outer side, 2 acyl side, 3 side chain; linkers in the order of their positions; H or OH if unused. Positions of bridges follow the written chain, without caps; N, C: chain ends. Non-standard residues stand in square brackets, D forms with d. Chains are numbered I, II in the order given. No end group written: not given here. *: point of attachment. TATA = O=C(CC[*:1])N1CN(C(=O)CC[*:2])CN(C(=O)CC[*:3])C1; 1Nal = N[C@@H](Cc1cccc2ccccc12)C(=O)O; Hyp = O=C(O)[C@@H]1C[C@@H](O)CN1; hArg = N=C(N)NCCCC[C@H](N)C(=O)O; tBuAla = CC(C)(C)C[C@H](N)C(=O)O; Nle = CCCC[C@H](N)C(=O)O; Pent4ynoyl = C#CCCC(=O)*; Dap = NC[C@H](N)C(=O)O; βAla = NCCC(=O)O; Sar = CNCC(=O)O

How the values were obtained:
human EphA2 protein = target: T1, human EphA2 protein (human, UniProt P29317 25-534, limits assumed, biotinylated with EZ-Link Sulfo-NHS-LC-Biotin); experiment: SPR (Biacore T200), biotinylated human EphA2 on streptavidin chip
T1 construct: Construct not described
Description: (§1) Streptavidin was immobilized on the chip using standard amine-coupling chemistry at 25° C. with HBS-N (10 mM HEPES, 0.15 M NaCl, pH 7.4) as the running buffer. Briefly, the carboxymethyl dextran surface was activated with a 7 min injection of a 1:1 ratio of 0.4 M 1-ethyl-3-(3-dimethylaminopropyl) carbodiimide hydrochloride (EDC)/0.1 M N-hydroxy succinimide (NHS) at a flow rate of 10 μl/min. […] Data were corrected for DMSO excluded volume effects. All data were double-referenced for blank injections and reference surface using standard processing procedures and data processing and kinetic fitting were performed using Scrubber software, version 2.0c (BioLogic Software). Data were fitted using simple 1:1 binding model allowing for mass transport effects where appropriate.

[1] = target: T2, Recombinant human CD137 (R&D systems) (human, UniProt Q07011 24-186, biotinylated with EZ-Link Sulfo-NHS-LC-LC-Biotin); experiment: SPR (Biacore), biotinylated human CD137 on streptavidin chip
T2 construct: Bought protein; also called human CD137 protein; TNFRSF9
Description: The protein was desalted to remove uncoupled biotin using spin columns into PBS.
For analysis of peptide binding, a Biacore T200 or a Biacore 3000 instrument was used with a XanTec CMD500D chip. Streptavidin was immobilized on the chip using standard amine-coupling chemistry at 25° C. with HBS-N (10 mM HEPES, 0.15 M NaCl, pH 7.4) as the running buffer. Briefly, the carboxymethyl dextran surface was activated with a 7 min injection of a 1:1 ratio of 0.4 M 1-ethyl-3-(3-dimethylaminopropyl) carbodiimide hydrochloride (EDC)/0.1 M N-hydroxy succinimide (NHS) at a flow rate of 10 μl/min. For capture of streptavidin, the protein was diluted to 0.2 mg/ml in 10 mM sodium acetate (pH 4.5) and captured by injecting 120 μl of onto the activated chip surface. Residual activated groups were blocked with a 7 min injection of 1 M ethanolamine (pH 8.5) and biotinylated CD137 captured to a level of 270-1500 RU. Buffer was changed to PBS/0.05% Tween 20 and a dilution series of the peptides was prepared in this buffer with a final DMSO concentration of 0.5%. The top peptide concentration was 500 nM with 6 further 2-fold or 3-fold dilutions. The SPR analysis was run at 25° C. at a flow rate of 90 μl/min with 60 seconds association and 900 seconds dissociation. After each cycle a regeneration step (10 μl of 10 mM glycine pH 2) was employed. Data were corrected for DMSO excluded volume effects as needed. All data were double-referenced for blank injections and reference surface using standard processing procedures and data processing and kinetic fitting were performed using Scrubber software, version 2.0c (BioLogic Software). Data were fitted using simple 1:1 binding model allowing for mass transport effects where appropriate.

[2] = target: CD137 expressed on cells (CHO cells expressing CD137); Jurkat cells of the Promega CD137 luciferase reporter … (UniProt Q07011 24-255, limits assumed); experiment: cell-based or functional assay
[3] = target: CD137 on human PBMC (anti-CD3 stimulated) (human, UniProt Q07011 24-255); experiment: cell-based or functional assay
[4] = target: T3, Human Nectin-4 (residues Gly32-Ser349; NCBI RefSeq: NP_112178.2) with C-terminal FLAG tag (human, UniProt Q96NY8 32-349, randomly biotinylated with EZ-Link Sulfo-NHS-LC-LC-Biotin); experiment: SPR (Biacore 3000), biotinylated human Nectin-4 on streptavidin chip
T3 construct: range 32-349; also called human Nectin-4 protein; not shown: C-terminal FLAG tag
T3 sequence (looked up): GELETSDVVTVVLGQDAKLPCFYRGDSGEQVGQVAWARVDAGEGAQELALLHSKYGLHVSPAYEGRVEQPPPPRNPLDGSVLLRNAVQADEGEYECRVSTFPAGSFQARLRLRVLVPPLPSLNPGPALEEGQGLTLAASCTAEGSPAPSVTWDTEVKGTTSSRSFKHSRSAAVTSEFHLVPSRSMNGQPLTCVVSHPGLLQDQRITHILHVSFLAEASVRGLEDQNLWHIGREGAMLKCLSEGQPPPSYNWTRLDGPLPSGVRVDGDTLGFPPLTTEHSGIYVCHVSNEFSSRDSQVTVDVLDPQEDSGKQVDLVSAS
Description: as §1, with “[…] Buffer was changed to PBS/0.05% Tween 20 and a dilution series of” for “Briefly,”, “peptides” for “carboxymethyl dextran surface”, “prepared in this buffer” for “activated”, “final DMSO concentration” for “7 min injection”, “0.5%.” for “a 1:1 ratio of 0.4 M 1-ethyl-3-(3-dimethylaminopropyl) carbodiimide hydrochloride (EDC)/0.1 M N-hydroxy succinimide (NHS) at a flow rate of 10 μl/min.”

[5] = target: CD137 expressed on cells (CHO cells expressing CD137; Jurkat cells of the Promega CD137 luciferase reporter assay) (UniProt Q07011); experiment: cell-based or functional assay
CD137 expressed on cells (CHO cells expressing CD137; Jurkat cells of the Promega CD137 luciferase reporter assay), sequence (Q07011 24-255 limits assumed): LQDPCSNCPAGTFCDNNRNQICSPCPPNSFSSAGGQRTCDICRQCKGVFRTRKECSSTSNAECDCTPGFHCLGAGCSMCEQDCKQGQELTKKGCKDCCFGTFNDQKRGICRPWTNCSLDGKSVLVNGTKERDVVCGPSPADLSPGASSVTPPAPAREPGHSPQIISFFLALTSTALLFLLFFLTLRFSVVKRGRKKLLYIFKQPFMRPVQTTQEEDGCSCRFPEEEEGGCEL

CD137 expressed on cells (CHO cells expressing CD137); Jurkat cells of the Promega CD137 luciferase reporter …, sequence (Q07011 24-255 limits assumed): as above
T1 sequence (P29317 25-534 limits assumed): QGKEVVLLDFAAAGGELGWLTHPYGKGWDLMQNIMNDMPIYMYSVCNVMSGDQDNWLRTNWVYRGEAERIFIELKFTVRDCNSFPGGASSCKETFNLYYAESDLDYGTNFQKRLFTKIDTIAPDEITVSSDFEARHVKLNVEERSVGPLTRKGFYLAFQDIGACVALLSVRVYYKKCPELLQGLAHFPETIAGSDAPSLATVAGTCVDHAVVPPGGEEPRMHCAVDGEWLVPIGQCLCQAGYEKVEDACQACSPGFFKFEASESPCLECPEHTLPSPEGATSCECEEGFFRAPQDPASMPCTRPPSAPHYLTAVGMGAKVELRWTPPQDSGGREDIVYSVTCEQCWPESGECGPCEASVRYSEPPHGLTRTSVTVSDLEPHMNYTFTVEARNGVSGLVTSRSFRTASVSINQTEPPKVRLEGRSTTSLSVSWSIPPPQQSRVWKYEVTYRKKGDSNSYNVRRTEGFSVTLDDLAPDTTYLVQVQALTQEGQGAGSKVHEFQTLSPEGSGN
CD137 on human PBMC (anti-CD3 stimulated), sequence (Q07011 24-255): as the sequence (Q07011 24-255 limits assumed) above

B1: heterotandem bicyclic peptide complex BCY9173 (peptide)
peptide 1: {Pent4ynoyl-βAla}-[Sar][Sar][Sar][Sar][Sar][Sar][Sar][Sar][Sar][Sar]A[hArg]DC[Hyp]LVNPLCLHP[dD]W[hArg]C
peptide 2: Ac-C[tBuAla]PE[dA]PYCFADPY[Nle]C[Dap]
modifications: linker I:14-I:21-I:28, II:1-II:8-II:15 via TATA; numbers in words are those of the source; also: heterotandem: PYA of chain 1 linked via PEG12 to C-terminal Dap of chain 2
For B1, the Kd (human EphA2 protein) was 2.1 nM, the Kd [1] was 7.98 nM and the “EC50 (nM), CD137 reporter assay, co-culture with SC-OV-3 (EphA2)” value (shortened to “EC50 (nM), CD137 reporter assay … (EphA2)”) [2] was 0.94 nM. For the same binder, the “Fold Induction over Background, CD137 reporter assay, co-culture with SC-OV-3 (EphA2)” value (“Fold Induction … with SC-OV-3 (EphA2)” for short) [2] was 21 fold.

B2: heterotandem bicyclic peptide complex BCY10000 (peptide)
peptide 1: {Pent4ynoyl-βAla}-[Sar][Sar][Sar][Sar][Sar][Sar][Sar][Sar][Sar][Sar]CP[1Nal][dD]CM[hArg]DWSTP[Hyp]WC
peptide 2: Ac-C[tBuAla]PE[dA]PYCFADPY[Nle]C[Dap]
modifications: linker I:11-I:15-I:25, II:1-II:8-II:15 via TATA; not fully specified (C-terminus); numbers in words are those of the source; also: linker to a chain's N/C-terminus via PEG12
For B2, the “EC50 (nM), IFN-γ secretion, human PBMC co-culture with 4T1-D02(Nectin4+)” value [3] was 0.21 nM, the “max IFN-γ (pg/ml), human PBMC co-culture with 4T1-D02(Nectin4+)” value [3] was 19600 pg/mL and the Kd [1] was 6.19 nM. For the same binder, the Kd [4] was 2.26 nM and the “EC50 (nM), CD137 reporter assay, co-culture with H1376 (Nectin4)” value [2] was 0.58 nM.

B3: heterotandem bicyclic peptide complex BCY8942 (peptide)
peptide 1: AXDCXLVNPLCLHPDWXC
peptide 2: ACIEEGQYCFADPYXC
modifications: BCY8045: N-terminal acetyl; D-Ala8, Nle12; C-terminal Dap (diaminopropionic acid) bearing the linker; Ci, Cii, Ciii on TATA scaffold; BCY6169: N-terminal [PYA]-[B-Ala]-[Sar10]- (linker on PYA); HArg in the A-[HArg]-D extension; HyP1, dD10, HArg12; Ci, Cii, Ciii on TATA scaffold
B3 gave a Fold Induction over Background, CD137 reporter assay, co-culture with PC3 (EphA2) [5] of under 2 fold, a Kd (human EphA2 protein) of 1.7 nM and a Kd [1] of 853 nM.

B4: heterotandem bicyclic peptide complex BCY9758 (peptide)
peptide 1: AXDCXLVNPLCLHPDWXC
peptide 2: ACIEEGQYCFADPYXC
modifications: BCY7732: N-terminal acetyl; Nle12; C-terminal Dap (diaminopropionic acid) bearing the linker; Ci, Cii, Ciii on TATA scaffold; BCY6099: N-terminal [B-Ala]-[Sar10]- (linker on N-terminus); HArg in the A-[HArg]-D extension; HyP1, dD10, HArg12; Ci, Cii, Ciii on TATA scaffold
With B4 the Kd (human EphA2 protein) was 1.5 nM, the Kd [1] was 189 nM and the “EC50 (nM), CD137 reporter assay … (EphA2)” value [2] was 1.2 nM. The “Fold Induction … with SC-OV-3 (EphA2)” value [2] was 7 fold.

B5: heterotandem bicyclic peptide complex BCY7985 (peptide)
peptide 1: AXDCXLVNPLCLHPDWXC
peptide 2: ACIEEGQYCFADPYXC
modifications: BCY7732: N-terminal acetyl; Nle12; C-terminal Dap (diaminopropionic acid) bearing the linker; Ci, Cii, Ciii on TATA scaffold; BCY6169: N-terminal [PYA]-[B-Ala]-[Sar10]- (linker on PYA); HArg in the A-[HArg]-D extension; HyP1, dD10, HArg12; Ci, Cii, Ciii on TATA scaffold
notes: also called EphA2-CD137 heterotandem BCY7985
For B5, the Kd (human EphA2 protein) was 2 nM, the Kd [1] was 143 nM and the “EC50 (nM), CD137 reporter assay … (EphA2)” value [2] was 4 nM. For the same binder, the “Fold Induction … with SC-OV-3 (EphA2)” value [2] was 15 fold.
